For one substance, Conductance Change, nS results are on record in US20100112546A1.

Assay [1] deals with prostate specific antigen (PSA) (UniProt P07288). Briefly: silicon nanowire FET (p-type), antibody on the wire; f-PSA 8.5 pg/ml.
For assay [2] the target is unchanged. Briefly: silicon nanowire FET (p-type), antibody on the wire; f-PSA 850 pg/ml.
Assay [3] has the same target. Briefly: silicon nanowire FET (p-type), antibody on the wire; f-PSA 0.85 pg/ml.
The target is the same in assay [4]. Briefly: silicon nanowire FET (p-type), antibody on the wire; f-PSA 1700 pg/ml.
The target of assay [5] is PSA-alpha-1-antichymotrypsin (PSA-ACT) complex (UniProt P07288). Briefly: silicon nanowire FET (p-type), antibody on the wire; PSA-ACT 3.2 pg/ml.
For assay [6] the target is unchanged. Briefly: silicon nanowire FET (p-type), antibody on the wire; PSA-ACT 320 pg/ml.
Assay [7] deals with prostate specific antigen (PSA) (UniProt P07288). Briefly: silicon nanowire FET (p-type), antibody on the wire; f-PSA 0.085 pg/ml.
Assay [8] concerns the target PSA-alpha-1-antichymotrypsin (PSA-ACT) complex (UniProt P07288). Briefly: silicon nanowire FET (p-type), antibody on the wire; PSA-ACT 0.32 pg/ml.
Assay [9] shares this target. Briefly: silicon nanowire FET (p-type), antibody on the wire; PSA-ACT 3200 pg/ml.
Assay [10] shares this target. Briefly: silicon nanowire FET (p-type); mixture of f-PSA 8.5, PSA-ACT 320 and free Ab1 1 x 10^7 pg/ml (f-PSA blocked by Ab1).
For assay [11] the target is unchanged. Briefly: silicon nanowire FET (p-type); mixture of f-PSA 850, PSA-ACT 0.32 and free Ab1 1 x 10^7 pg/ml (f-PSA blocked by Ab1).
For assay [12] the target is unchanged. Briefly: silicon nanowire FET (p-type); mixture of f-PSA 850, PSA-ACT 3200 and free Ab1 1 x 10^7 pg/ml (f-PSA blocked by Ab1).
Assay [13] shares this target. Briefly: silicon nanowire FET (p-type); mixture of f-PSA 0.85, PSA-ACT 3200 and free Ab1 1 x 10^7 pg/ml (f-PSA blocked by Ab1).

As to “monoclonal antibody anti-ACT-PSA (AbII, clone PSA1, abcam Inc.)”, the Conductance Change, nS stood at 81 nS in [1]; 132 nS in assay [2]; 50 nS in assay [3]; 154 nS in [4]; 67 nS in assay [5]; 124 nS in assay [6]. For the same substance, the Conductance Change, nS in [7] was determined as 10 nS; in [8], 19 nS; in assay [9] it was 143 nS; in assay [10], 118 nS; in assay [11], 15 nS; in assay [12], 140 nS. Further, in assay [13], the Conductance Change, nS came out at 138 nS.
